Measured values reported in article PMC8103725 (FASEB BioAdvances, 2021).

Target: HEG1–KRIT1 interaction (EGFP‐KRIT1 FERM domain binding to HEG1 cytoplasmic tail on beads) (Homo sapiens, UniProt O00522)
Test: Flow cytometry bead assay for the HEG1–KRIT1 FERM domain interaction
Settings: bead assay, compared with wild‐type KRIT1

Chain of HEG1–KRIT1 interaction (EGFP‐KRIT1 FERM domain binding to HEG1 cytoplasmic tail on beads) (O00522 417-736): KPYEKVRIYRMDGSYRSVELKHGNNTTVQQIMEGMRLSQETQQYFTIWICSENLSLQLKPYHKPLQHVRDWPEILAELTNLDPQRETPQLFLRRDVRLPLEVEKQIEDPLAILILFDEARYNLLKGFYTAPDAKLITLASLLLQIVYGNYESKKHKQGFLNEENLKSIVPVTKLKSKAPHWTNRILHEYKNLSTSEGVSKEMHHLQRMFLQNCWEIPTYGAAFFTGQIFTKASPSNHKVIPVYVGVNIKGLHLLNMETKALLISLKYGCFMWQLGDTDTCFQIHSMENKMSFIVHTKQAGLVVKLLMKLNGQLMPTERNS

B1: KRIT1 (L717,721A) mutant: EGFP‐KRIT1 FERM domain mutant with reduced affinity for HEG1 (protein)
chain: KPYEKVRIYRMDGSYRSVELKHGNNTTVQQIMEGMRLSQETQQYFTIWICSENLSLQLKPYHKPLQHVRDWPEILAELTNLDPQRETPQLFLRRDVRLPLEVEKQIEDPLAILILFDEARYNLLKGFYTAPDAKLITLASLLLQIVYGNYESKKHKQGFLNEENLKSIVPVTKLKSKAPHWTNRILHEYKNLSTSEGVSKEMHHLQRMFLQNCWEIPTYGAAFFTGQIFTKASPSNHKVIPVYVGVNIKGLHLLNMETKALLISLKYGCFMWQLGDTDTCFQIHSMENKMSFIVHTKQAGAVVKALMKLNGQLMPTERNS
modifications: left off: His6, N-terminal, state not stated | EGFP, N-terminal, kept
With B1 the “binding to HEG1” value was “dramatic reduction in binding”.
